Measured values as given in patent US20180273599A1.

Experiments:
[1] = target: T1, HIS-tagged inhibin α-subunit prodomain (human) (UniProt P05111); assay: IMAC (Ni-NTA) co-purification from HEK293T conditioned medium; Western blot and ELISA
T1 sequence: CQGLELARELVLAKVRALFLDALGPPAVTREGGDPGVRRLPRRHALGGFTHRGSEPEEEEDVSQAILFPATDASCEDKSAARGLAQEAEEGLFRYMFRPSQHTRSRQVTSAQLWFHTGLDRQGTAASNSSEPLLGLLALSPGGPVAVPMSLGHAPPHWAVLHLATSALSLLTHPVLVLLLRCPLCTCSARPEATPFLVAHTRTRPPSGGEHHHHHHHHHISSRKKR

[2] = target: T2, betaglycan on LβT2 mouse pituitary gonadotrope cells (mouse) (UniProt O88393); assay: cell-based or functional assay
T2 sequence (looked up): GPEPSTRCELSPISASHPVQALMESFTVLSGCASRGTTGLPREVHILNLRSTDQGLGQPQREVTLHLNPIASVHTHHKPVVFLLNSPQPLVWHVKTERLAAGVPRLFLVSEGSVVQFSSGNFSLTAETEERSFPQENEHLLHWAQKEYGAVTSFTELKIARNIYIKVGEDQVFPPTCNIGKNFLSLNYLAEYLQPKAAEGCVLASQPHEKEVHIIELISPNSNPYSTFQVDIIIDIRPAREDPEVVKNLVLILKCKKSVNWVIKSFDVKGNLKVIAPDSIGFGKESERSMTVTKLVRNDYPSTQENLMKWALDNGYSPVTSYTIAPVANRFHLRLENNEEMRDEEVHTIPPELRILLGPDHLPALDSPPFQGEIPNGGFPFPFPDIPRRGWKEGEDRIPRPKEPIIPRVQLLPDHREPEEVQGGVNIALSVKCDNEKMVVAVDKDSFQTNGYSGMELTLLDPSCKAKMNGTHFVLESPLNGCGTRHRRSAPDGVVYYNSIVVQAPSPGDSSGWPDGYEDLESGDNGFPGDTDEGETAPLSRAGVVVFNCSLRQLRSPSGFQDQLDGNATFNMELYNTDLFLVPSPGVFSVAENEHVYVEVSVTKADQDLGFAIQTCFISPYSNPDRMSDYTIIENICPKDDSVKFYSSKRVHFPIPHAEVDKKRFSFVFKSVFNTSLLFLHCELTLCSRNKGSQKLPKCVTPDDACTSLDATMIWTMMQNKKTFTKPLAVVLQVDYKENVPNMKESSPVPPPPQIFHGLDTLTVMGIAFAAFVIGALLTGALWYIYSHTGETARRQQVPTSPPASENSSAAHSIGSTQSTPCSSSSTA

[3] = target: T3, betaglycan on primary rat pituitary cells (rat) (UniProt P26342); assay: cell-based or functional assay
T3 sequence (looked up): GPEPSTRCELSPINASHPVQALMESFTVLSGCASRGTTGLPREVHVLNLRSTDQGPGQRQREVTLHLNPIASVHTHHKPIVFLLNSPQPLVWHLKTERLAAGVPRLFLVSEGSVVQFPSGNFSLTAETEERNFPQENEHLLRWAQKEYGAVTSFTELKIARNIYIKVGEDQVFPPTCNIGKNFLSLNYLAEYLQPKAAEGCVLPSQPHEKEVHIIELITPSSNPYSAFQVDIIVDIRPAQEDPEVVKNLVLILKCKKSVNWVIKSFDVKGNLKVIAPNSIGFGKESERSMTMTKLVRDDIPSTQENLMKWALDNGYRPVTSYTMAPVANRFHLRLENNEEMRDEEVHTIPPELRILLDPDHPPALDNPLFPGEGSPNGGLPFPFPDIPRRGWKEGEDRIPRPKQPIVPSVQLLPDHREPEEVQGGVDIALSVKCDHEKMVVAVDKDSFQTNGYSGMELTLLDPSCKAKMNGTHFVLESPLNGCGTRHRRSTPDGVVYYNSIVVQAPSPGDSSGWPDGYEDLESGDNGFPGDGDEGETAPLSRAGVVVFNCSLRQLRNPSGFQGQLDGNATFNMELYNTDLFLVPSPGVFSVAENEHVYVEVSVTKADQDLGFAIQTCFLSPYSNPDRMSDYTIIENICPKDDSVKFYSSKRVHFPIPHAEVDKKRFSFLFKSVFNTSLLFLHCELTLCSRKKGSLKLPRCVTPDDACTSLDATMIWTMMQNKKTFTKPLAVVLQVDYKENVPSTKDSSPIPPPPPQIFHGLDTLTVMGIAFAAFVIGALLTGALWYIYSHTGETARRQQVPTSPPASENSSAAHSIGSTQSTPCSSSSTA

type I receptor (ALK4) = target: T4, type I receptor (ALK4) (UniProt P36896); assay: cell-based or functional assay
T4 sequence (looked up): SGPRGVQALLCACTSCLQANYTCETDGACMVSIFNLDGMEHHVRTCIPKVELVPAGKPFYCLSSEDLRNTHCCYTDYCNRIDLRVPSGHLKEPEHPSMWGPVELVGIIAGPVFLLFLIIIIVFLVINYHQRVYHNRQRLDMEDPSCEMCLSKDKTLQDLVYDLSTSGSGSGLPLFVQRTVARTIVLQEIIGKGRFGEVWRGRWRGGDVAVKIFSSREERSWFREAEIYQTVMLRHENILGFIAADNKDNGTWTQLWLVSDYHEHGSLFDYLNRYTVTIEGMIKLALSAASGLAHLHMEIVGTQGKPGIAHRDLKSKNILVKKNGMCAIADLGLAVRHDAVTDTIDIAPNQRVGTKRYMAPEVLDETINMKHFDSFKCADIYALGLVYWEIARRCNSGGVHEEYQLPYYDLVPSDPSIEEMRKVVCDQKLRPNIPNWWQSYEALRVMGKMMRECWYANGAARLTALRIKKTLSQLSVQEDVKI

Binder	percent of mature inhibin A co-purified with the HIS-tagged prodomain [1]	IC50, FSH release by LβT2 pituitary gonadotrope cells [2]	potency in FSH release by LβT2 cells, against mature inhibin A [2]	IC50, decrease in FSH release by primary rat pituitary cells [3]	activin response, activin-responsive luciferase reporter (A3-Luc) in HEK293 cells, against inhibin A-SCUT without M418A (type I receptor (ALK4))
mature inhibin A (M418A) (ligand) chain 1: SVSSTPLMSWPWSPSALRLLQRPPEEPAAHANCHRVALNISFQELGWERWIVYPPSFIFHYCHGGCGLHIPPNLSLPVPGAPPTPAQPYSLLPGAQPCCAALPGTMRPLHVRTTSDGGYSFKYETVPNLLTQHCACI chain 2: SVSSGLECDGKVNICCKKQFFVSFKDIGWNDWIIAPSGYHANYCEGECPSHIAGTSGSSLSFHSTVINHYRMRGHSPFANLKSCCVPTKLRPMSMLYYDDGQNIIKKDIQNAIVEECGCS	> 90%				
Pro-inhibin A (M418A) (ligand) chain 1: CQGLELARELVLAKVRALFLDALGPPAVTREGGDPGVRRLPRRHALGGFTHRGSEPEEEEDVSQAILFPATDASCEDKSAARGLAQEAEEGLFRYMFRPSQHTRSRQVTSAQLWFHTGLDRQGTAASNSSEPLLGLLALSPGGPVAVPMSLGHAPPHWAVLHLATSALSLLTHPVLVLLLRCPLCTCSARPEATPFLVAHTRTRPPSGGEHHHHHHHHHISSRKKRSVSSTPLMSWPWSPSALRLLQRPPEEPAAHANCHRVALNISFQELGWERWIVYPPSFIFHYCHGGCGLHIPPNLSLPVPGAPPTPAQPYSLLPGAQPCCAALPGTMRPLHVRTTSDGGYSFKYETVPNLLTQHCACI chain 2: DYKDDDDKSPTPGSEGHSAAPDCPSCALAALPKDVPNSQPEMVEAVKKHILNMLHLKKRPDVTQPVPKAALLNAIRKLHVGKVGENGYVEIEDDIGRRAEMNELMEQTSEIITFAESGTARKTLHFEISKEGSDLSVVERAEVWLFLKVPKANRTRTKVTIRLFQQQKHPQGSLDTGEEAEEVGLKGERSELLLSEKVVDARKSTWHVFPVSSSIQRLLDQGKSSLDVRIACEQCQESGASLVLLGKKKKKEEEGEGKKKGGGEGGAGADEEKEQSHRPFLMLQARQSEDHPHISSRKKRSVSSGLECDGKVNICCKKQFFVSFKDIGWNDWIIAPSGYHANYCEGECPSHIAGTSGSSLSFHSTVINHYRMRGHSPFANLKSCCVPTKLRPMSMLYYDDGQNIIKKDIQNAIVEECGCS		0.045 nM	22 fold	0.075 nM	
activin A (M418A), residual in the inhibin A-SCUT (M418A) preparation (ligand) DYKDDDDKSPTPGSEGHSAAPDCPSCALAALPKDVPNSQPEMVEAVKKHILNMLHLKKRPDVTQPVPKAALLNAIRKLHVGKVGENGYVEIEDDIGRRAEMNELMEQTSEIITFAESGTARKTLHFEISKEGSDLSVVERAEVWLFLKVPKANRTRTKVTIRLFQQQKHPQGSLDTGEEAEEVGLKGERSELLLSEKVVDARKSTWHVFPVSSSIQRLLDQGKSSLDVRIACEQCQESGASLVLLGKKKKKEEEGEGKKKGGGEGGAGADEEKEQSHRPFLMLQARQSEDHPHISSRKKRSVSSGLECDGKVNICCKKQFFVSFKDIGWNDWIIAPSGYHANYCEGECPSHIAGTSGSSLSFHSTVINHYRMRGHSPFANLKSCCVPTKLRPMSMLYYDDGQNIIKKDIQNAIVEECGCS					100 fold lower
HPLC-purified mature inhibin A (ligand) chain 1: STPLMSWPWSPSALRLLQRPPEEPAAHANCHRVALNISFQELGWERWIVYPPSFIFHYCHGGCGLHIPPNLSLPVPGAPPTPAQPYSLLPGAQPCCAALPGTMRPLHVRTTSDGGYSFKYETVPNLLTQHCACI chain 2: GLECDGKVNICCKKQFFVSFKDIGWNDWIIAPSGYHANYCEGECPSHIAGTSGSSLSFHSTVINHYRMRGHSPFANLKSCCVPTKLRPMSMLYYDDGQNIIKKDIQNMIVEECGCS		1 nM		0.065 nM	
